According to PMC7667529:

Target: megalin (low-density lipoprotein receptor-related protein 2) (mouse (endogenous in hippocampal neurons)) (UniProt A2ARV4)
Sequence (A2ARV4 26-4660): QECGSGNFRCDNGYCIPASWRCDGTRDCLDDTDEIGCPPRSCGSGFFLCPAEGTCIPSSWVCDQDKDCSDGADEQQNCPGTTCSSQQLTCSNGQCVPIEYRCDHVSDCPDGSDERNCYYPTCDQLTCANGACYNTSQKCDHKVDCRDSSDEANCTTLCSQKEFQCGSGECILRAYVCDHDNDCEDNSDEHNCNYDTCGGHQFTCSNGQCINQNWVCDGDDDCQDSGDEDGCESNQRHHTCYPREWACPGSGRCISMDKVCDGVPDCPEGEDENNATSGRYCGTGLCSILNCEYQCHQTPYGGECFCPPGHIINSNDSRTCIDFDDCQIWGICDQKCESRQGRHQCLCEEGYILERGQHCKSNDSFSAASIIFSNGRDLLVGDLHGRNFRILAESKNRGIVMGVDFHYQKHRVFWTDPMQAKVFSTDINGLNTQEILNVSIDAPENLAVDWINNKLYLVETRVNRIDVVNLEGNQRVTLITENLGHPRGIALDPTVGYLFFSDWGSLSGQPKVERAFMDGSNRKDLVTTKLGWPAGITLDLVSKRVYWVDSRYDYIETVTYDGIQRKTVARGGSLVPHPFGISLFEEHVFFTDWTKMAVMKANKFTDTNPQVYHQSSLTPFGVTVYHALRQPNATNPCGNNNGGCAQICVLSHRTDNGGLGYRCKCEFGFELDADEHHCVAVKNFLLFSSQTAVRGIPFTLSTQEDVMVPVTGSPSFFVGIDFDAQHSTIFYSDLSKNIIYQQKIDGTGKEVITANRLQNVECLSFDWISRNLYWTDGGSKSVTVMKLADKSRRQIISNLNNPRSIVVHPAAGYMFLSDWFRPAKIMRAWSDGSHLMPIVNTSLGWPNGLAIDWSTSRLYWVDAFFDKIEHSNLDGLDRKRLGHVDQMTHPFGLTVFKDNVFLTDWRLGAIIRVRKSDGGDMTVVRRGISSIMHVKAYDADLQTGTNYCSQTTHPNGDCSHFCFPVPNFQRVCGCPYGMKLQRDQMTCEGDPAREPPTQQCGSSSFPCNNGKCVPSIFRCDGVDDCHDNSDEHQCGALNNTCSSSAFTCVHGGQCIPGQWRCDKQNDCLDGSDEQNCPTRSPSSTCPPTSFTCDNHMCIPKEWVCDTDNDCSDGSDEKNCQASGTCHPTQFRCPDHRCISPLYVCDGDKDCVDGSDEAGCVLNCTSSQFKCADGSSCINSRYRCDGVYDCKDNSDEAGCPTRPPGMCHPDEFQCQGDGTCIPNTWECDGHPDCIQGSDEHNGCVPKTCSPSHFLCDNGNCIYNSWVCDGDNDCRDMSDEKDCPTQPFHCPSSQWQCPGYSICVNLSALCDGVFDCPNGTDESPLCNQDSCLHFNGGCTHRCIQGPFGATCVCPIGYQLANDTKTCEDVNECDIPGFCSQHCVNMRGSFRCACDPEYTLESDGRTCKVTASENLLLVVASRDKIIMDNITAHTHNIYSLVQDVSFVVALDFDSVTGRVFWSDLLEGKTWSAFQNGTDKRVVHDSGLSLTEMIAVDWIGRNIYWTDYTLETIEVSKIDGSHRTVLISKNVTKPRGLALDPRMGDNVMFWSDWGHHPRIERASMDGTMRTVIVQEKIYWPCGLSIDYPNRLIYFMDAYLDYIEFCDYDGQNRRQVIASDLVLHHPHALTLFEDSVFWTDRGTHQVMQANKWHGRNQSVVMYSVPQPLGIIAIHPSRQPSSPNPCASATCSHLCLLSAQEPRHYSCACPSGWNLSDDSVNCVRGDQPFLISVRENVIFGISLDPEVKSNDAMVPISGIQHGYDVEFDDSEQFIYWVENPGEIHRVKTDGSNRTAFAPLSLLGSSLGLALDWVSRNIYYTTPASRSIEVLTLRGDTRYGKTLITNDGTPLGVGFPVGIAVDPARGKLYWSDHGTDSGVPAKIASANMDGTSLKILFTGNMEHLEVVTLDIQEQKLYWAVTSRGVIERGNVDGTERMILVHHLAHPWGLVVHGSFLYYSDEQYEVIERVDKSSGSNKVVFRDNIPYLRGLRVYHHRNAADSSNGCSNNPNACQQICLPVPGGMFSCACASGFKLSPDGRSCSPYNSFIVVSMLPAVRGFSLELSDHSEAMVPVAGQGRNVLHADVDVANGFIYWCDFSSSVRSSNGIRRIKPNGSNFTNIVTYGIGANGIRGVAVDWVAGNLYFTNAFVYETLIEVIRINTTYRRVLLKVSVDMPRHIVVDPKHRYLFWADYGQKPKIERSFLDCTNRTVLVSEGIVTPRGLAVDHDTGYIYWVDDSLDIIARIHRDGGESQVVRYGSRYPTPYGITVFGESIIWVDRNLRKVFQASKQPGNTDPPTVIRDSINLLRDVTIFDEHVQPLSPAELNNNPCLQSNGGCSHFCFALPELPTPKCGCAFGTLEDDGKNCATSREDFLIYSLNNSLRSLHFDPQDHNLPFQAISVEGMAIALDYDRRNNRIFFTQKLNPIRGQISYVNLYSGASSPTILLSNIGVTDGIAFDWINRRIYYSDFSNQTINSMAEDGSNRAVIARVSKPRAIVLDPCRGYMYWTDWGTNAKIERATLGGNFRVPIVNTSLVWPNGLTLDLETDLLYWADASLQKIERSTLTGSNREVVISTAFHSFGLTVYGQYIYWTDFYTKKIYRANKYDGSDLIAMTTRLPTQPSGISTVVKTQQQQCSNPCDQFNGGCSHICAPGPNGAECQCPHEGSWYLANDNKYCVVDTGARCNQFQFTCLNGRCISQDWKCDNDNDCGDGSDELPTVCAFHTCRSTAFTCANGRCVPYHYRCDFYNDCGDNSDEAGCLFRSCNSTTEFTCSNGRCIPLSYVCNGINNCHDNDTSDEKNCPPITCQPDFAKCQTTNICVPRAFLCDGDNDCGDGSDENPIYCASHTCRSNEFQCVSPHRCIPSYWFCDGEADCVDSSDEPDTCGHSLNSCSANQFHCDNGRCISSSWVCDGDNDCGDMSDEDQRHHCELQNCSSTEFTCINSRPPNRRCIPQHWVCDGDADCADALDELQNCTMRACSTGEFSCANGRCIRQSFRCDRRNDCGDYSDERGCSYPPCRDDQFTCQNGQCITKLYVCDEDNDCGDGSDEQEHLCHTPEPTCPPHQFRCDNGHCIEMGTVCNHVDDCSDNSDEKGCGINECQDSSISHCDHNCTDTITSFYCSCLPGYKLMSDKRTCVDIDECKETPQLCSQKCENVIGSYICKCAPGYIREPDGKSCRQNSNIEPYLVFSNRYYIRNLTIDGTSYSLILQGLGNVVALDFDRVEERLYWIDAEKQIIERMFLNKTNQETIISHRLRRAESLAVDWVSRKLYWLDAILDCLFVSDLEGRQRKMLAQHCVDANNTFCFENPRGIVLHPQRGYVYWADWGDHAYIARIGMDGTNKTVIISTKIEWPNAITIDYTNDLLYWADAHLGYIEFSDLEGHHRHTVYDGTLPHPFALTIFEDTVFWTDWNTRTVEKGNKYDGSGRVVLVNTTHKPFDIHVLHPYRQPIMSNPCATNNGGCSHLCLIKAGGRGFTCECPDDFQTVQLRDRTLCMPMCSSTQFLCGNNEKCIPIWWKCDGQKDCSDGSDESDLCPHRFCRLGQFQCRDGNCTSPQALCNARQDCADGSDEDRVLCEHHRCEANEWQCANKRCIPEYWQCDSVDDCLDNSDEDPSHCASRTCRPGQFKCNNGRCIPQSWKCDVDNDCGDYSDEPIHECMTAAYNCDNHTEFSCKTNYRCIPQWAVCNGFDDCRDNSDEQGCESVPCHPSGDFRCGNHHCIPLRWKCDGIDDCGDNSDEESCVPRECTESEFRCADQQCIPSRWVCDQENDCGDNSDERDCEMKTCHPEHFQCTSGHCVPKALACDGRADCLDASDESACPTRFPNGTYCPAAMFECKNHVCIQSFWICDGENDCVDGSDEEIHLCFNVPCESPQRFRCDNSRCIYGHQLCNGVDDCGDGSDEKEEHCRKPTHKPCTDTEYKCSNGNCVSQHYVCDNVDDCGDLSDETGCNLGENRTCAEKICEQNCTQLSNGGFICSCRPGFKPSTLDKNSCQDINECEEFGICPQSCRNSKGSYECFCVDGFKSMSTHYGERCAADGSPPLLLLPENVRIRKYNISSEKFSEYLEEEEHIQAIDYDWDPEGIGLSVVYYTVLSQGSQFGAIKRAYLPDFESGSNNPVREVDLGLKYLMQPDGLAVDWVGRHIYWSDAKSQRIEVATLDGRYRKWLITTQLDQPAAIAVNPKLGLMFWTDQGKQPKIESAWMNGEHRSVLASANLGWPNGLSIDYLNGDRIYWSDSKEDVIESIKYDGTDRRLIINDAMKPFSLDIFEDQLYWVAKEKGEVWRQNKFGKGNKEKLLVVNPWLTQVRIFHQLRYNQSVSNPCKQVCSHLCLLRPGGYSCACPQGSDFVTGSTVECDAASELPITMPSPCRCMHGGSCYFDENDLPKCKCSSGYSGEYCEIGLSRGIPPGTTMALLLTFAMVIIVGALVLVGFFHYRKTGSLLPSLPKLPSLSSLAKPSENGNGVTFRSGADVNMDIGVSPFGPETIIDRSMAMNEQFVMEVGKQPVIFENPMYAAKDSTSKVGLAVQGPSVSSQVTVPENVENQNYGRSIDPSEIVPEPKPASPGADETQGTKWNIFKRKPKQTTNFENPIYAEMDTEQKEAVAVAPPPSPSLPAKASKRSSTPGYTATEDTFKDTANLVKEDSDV

LRP2-ICD level (western blot, anti-GFP) in TTR KO neurons transfected with short-megalin-GFP and stimulated with recombinant mouse TTR (55 µg/ml, 4 h): 50 % increase
LRP2-ICD level (western blot, anti-megalin) in non-transfected WT hippocampal neurons (15 DIV) after 5 min with recombinant mouse TTR (55 µg/ml): 5 fold
Substance: recombinant mouse transthyretin (from UniProt P07309 21-147) (ligand)
